Experimental data reported in patent US20120172293A1 (Takeda / Millennium, published 2012).
Starred links: 1 amine or outer side, 2 acyl side, 3 side chain; linkers in the order of their positions; H or OH if unused. Non-standard residues stand in square brackets, D forms with d. *: point of attachment. Imidazole4carbonyl = O=C(c1cnc[nH]1)*; 4Pal = N[C@@H](Cc1ccncc1)C(=O)O; dHyp = O=C(O)[C@H]1C[C@H](O)CN1; Cha = N[C@@H](CC1CCCCC1)C(=O)O; Isonicotinoyl = O=C(c1ccncc1)*; Suc = O=C(CCC(=O)[*:2])[*:1]; Isobutyryl = CC(C)C(=O)*; Aib = CC(C)(N)C(=O)O; βAla = NCCC(=O)O

B1: Ac-[Glu23, D-Hyp24, Cha27,28,36, Lys30, Aib31]-PYY(23-36) (peptide)
peptide: Ac-E[dHyp]RH[Cha][Cha]NK[Aib]TRQR[Cha]-NH2
SMILES: CC(=O)N[C@@H](CCC(=O)O)C(=O)N1C[C@@H](O)C[C@@H]1C(=O)N[C@@H](CCCNC(=N)N)C(=O)N[C@@H](Cc1c[nH]cn1)C(=O)N[C@@H](CC1CCCCC1)C(=O)N[C@@H](CC1CCCCC1)C(=O)N[C@@H](CC(N)=O)C(=O)N[C@@H](CCCCN)C(=O)NC(C)(C)C(=O)N[C@H](C(=O)N[C@@H](CCCNC(=N)N)C(=O)N[C@@H](CCC(N)=O)C(=O)N[C@@H](CCCNC(=N)N)C(=O)N[C@@H](CC1CCCCC1)C(N)=O)[C@@H](C)O
B2: Ac-[D-Pro24, Pya(4)26, Cha27,36, Aib28,31, Lys30]-PYY(22-36) (peptide)
peptide: Ac-AS[dP]R[4Pal][Cha][Aib]NK[Aib]TRQR[Cha]-NH2
SMILES: CC(=O)N[C@@H](C)C(=O)N[C@@H](CO)C(=O)N1CCC[C@@H]1C(=O)N[C@@H](CCCNC(=N)N)C(=O)N[C@@H](Cc1ccncc1)C(=O)N[C@@H](CC1CCCCC1)C(=O)NC(C)(C)C(=O)N[C@@H](CC(N)=O)C(=O)N[C@@H](CCCCN)C(=O)NC(C)(C)C(=O)N[C@H](C(=O)N[C@@H](CCCNC(=N)N)C(=O)N[C@@H](CCC(N)=O)C(=O)N[C@@H](CCCNC(=N)N)C(=O)N[C@@H](CC1CCCCC1)C(N)=O)[C@@H](C)O
B3: 4-Pyridinecarbonyl-[Glu23, D-Pro24, Pya(4)26, Cha27,36, Aib28,31, Lys30]-PYY(23-36) (peptide)
peptide: Isonicotinoyl-E[dP]R[4Pal][Cha][Aib]NK[Aib]TRQR[Cha]-NH2
SMILES: C[C@@H](O)[C@H](NC(=O)C(C)(C)NC(=O)[C@H](CCCCN)NC(=O)[C@H](CC(N)=O)NC(=O)C(C)(C)NC(=O)[C@H](CC1CCCCC1)NC(=O)[C@H](Cc1ccncc1)NC(=O)[C@H](CCCNC(=N)N)NC(=O)[C@H]1CCCN1C(=O)[C@H](CCC(=O)O)NC(=O)c1ccncc1)C(=O)N[C@@H](CCCNC(=N)N)C(=O)N[C@@H](CCC(N)=O)C(=O)N[C@@H](CCCNC(=N)N)C(=O)N[C@@H](CC1CCCCC1)C(N)=O
B4: Ac-[D-Pro24, Pya(4)26, Cha27,36, Aib28,31, Trp30]-PYY(23-36) (peptide)
peptide: Ac-S[dP]R[4Pal][Cha][Aib]NW[Aib]TRQR[Cha]-NH2
SMILES: CC(=O)N[C@@H](CO)C(=O)N1CCC[C@@H]1C(=O)N[C@@H](CCCNC(=N)N)C(=O)N[C@@H](Cc1ccncc1)C(=O)N[C@@H](CC1CCCCC1)C(=O)NC(C)(C)C(=O)N[C@@H](CC(N)=O)C(=O)N[C@@H](Cc1c[nH]c2ccccc12)C(=O)NC(C)(C)C(=O)N[C@H](C(=O)N[C@@H](CCCNC(=N)N)C(=O)N[C@@H](CCC(N)=O)C(=O)N[C@@H](CCCNC(=N)N)C(=O)N[C@@H](CC1CCCCC1)C(N)=O)[C@@H](C)O
B5: Ac-[Glu23, D-Hyp24, Pya(4)26, Cha27,36, Aib28,31, Lys30]-PYY(23-36) (peptide)
peptide: Ac-E[dHyp]R[4Pal][Cha][Aib]NK[Aib]TRQR[Cha]-NH2
SMILES: CC(=O)N[C@@H](CCC(=O)O)C(=O)N1C[C@@H](O)C[C@@H]1C(=O)N[C@@H](CCCNC(=N)N)C(=O)N[C@@H](Cc1ccncc1)C(=O)N[C@@H](CC1CCCCC1)C(=O)NC(C)(C)C(=O)N[C@@H](CC(N)=O)C(=O)N[C@@H](CCCCN)C(=O)NC(C)(C)C(=O)N[C@H](C(=O)N[C@@H](CCCNC(=N)N)C(=O)N[C@@H](CCC(N)=O)C(=O)N[C@@H](CCCNC(=N)N)C(=O)N[C@@H](CC1CCCCC1)C(N)=O)[C@@H](C)O
B6: Ac-[Gln23, D-Pro24, Pya(4)26, Cha27,36, Aib28,31, Lys30]-PYY(23-36) (peptide)
peptide: Ac-Q[dP]R[4Pal][Cha][Aib]NK[Aib]TRQR[Cha]-NH2
SMILES: CC(=O)N[C@@H](CCC(N)=O)C(=O)N1CCC[C@@H]1C(=O)N[C@@H](CCCNC(=N)N)C(=O)N[C@@H](Cc1ccncc1)C(=O)N[C@@H](CC1CCCCC1)C(=O)NC(C)(C)C(=O)N[C@@H](CC(N)=O)C(=O)N[C@@H](CCCCN)C(=O)NC(C)(C)C(=O)N[C@H](C(=O)N[C@@H](CCCNC(=N)N)C(=O)N[C@@H](CCC(N)=O)C(=O)N[C@@H](CCCNC(=N)N)C(=O)N[C@@H](CC1CCCCC1)C(N)=O)[C@@H](C)O
B7: 3-Carboxypropionyl-[Gln23, D-Pro24, Pya(4)26, Cha27,36, Aib28,31, Lys30]-PYY(23-36) (peptide)
peptide: Suc-Q[dP]R[4Pal][Cha][Aib]NK[Aib]TRQR[Cha]-NH2
SMILES: C[C@@H](O)[C@H](NC(=O)C(C)(C)NC(=O)[C@H](CCCCN)NC(=O)[C@H](CC(N)=O)NC(=O)C(C)(C)NC(=O)[C@H](CC1CCCCC1)NC(=O)[C@H](Cc1ccncc1)NC(=O)[C@H](CCCNC(=N)N)NC(=O)[C@H]1CCCN1C(=O)[C@H](CCC(N)=O)NC(=O)CCC(=O)O)C(=O)N[C@@H](CCCNC(=N)N)C(=O)N[C@@H](CCC(N)=O)C(=O)N[C@@H](CCCNC(=N)N)C(=O)N[C@@H](CC1CCCCC1)C(N)=O
B8: Isobutanoyl-[Glu23, D-Pro24, Pya(4)26, Cha27,36, Aib28,31, Lys30]-PYY(23-36) (peptide)
peptide: Isobutyryl-E[dP]R[4Pal][Cha][Aib]NK[Aib]TRQR[Cha]-NH2
SMILES: CC(C)C(=O)N[C@@H](CCC(=O)O)C(=O)N1CCC[C@@H]1C(=O)N[C@@H](CCCNC(=N)N)C(=O)N[C@@H](Cc1ccncc1)C(=O)N[C@@H](CC1CCCCC1)C(=O)NC(C)(C)C(=O)N[C@@H](CC(N)=O)C(=O)N[C@@H](CCCCN)C(=O)NC(C)(C)C(=O)N[C@H](C(=O)N[C@@H](CCCNC(=N)N)C(=O)N[C@@H](CCC(N)=O)C(=O)N[C@@H](CCCNC(=N)N)C(=O)N[C@@H](CC1CCCCC1)C(N)=O)[C@@H](C)O
B9: Ac-[Thr23, D-Pro24, Pya(4)26, Cha27,36, Aib28,31, Lys30]-PYY(23-36) (peptide)
peptide: Ac-T[dP]R[4Pal][Cha][Aib]NK[Aib]TRQR[Cha]-NH2
SMILES: CC(=O)N[C@H](C(=O)N1CCC[C@@H]1C(=O)N[C@@H](CCCNC(=N)N)C(=O)N[C@@H](Cc1ccncc1)C(=O)N[C@@H](CC1CCCCC1)C(=O)NC(C)(C)C(=O)N[C@@H](CC(N)=O)C(=O)N[C@@H](CCCCN)C(=O)NC(C)(C)C(=O)N[C@H](C(=O)N[C@@H](CCCNC(=N)N)C(=O)N[C@@H](CCC(N)=O)C(=O)N[C@@H](CCCNC(=N)N)C(=O)N[C@@H](CC1CCCCC1)C(N)=O)[C@@H](C)O)[C@@H](C)O
B10: Ac-[Glu23, βAla24, Pya(4)26, Cha27,36, Aib28,31, Lys30]-PYY(23-36) (peptide)
peptide: Ac-E[βAla]R[4Pal][Cha][Aib]NK[Aib]TRQR[Cha]-NH2
SMILES: CC(=O)N[C@@H](CCC(=O)O)C(=O)NCCC(=O)N[C@@H](CCCNC(=N)N)C(=O)N[C@@H](Cc1ccncc1)C(=O)N[C@@H](CC1CCCCC1)C(=O)NC(C)(C)C(=O)N[C@@H](CC(N)=O)C(=O)N[C@@H](CCCCN)C(=O)NC(C)(C)C(=O)N[C@H](C(=O)N[C@@H](CCCNC(=N)N)C(=O)N[C@@H](CCC(N)=O)C(=O)N[C@@H](CCCNC(=N)N)C(=O)N[C@@H](CC1CCCCC1)C(N)=O)[C@@H](C)O
B11: 4-Imidazolecarbonyl-[Glu23, D-Pro24, Pya(4)26, Cha27,36, Aib28,31, Lys30]-PYY(23-36) (peptide)
peptide: Imidazole4carbonyl-E[dP]R[4Pal][Cha][Aib]NK[Aib]TRQR[Cha]-NH2
SMILES: C[C@@H](O)[C@H](NC(=O)C(C)(C)NC(=O)[C@H](CCCCN)NC(=O)[C@H](CC(N)=O)NC(=O)C(C)(C)NC(=O)[C@H](CC1CCCCC1)NC(=O)[C@H](Cc1ccncc1)NC(=O)[C@H](CCCNC(=N)N)NC(=O)[C@H]1CCCN1C(=O)[C@H](CCC(=O)O)NC(=O)c1cnc[nH]1)C(=O)N[C@@H](CCCNC(=N)N)C(=O)N[C@@H](CCC(N)=O)C(=O)N[C@@H](CCCNC(=N)N)C(=O)N[C@@H](CC1CCCCC1)C(N)=O
B12: Ac-[Glu23, D-Pro24, Pya(4)26, Cha27,36, Aib28,31, Lys30]-PYY(22-36) (peptide)
peptide: Ac-AE[dP]R[4Pal][Cha][Aib]NK[Aib]TRQR[Cha]-NH2
SMILES: CC(=O)N[C@@H](C)C(=O)N[C@@H](CCC(=O)O)C(=O)N1CCC[C@@H]1C(=O)N[C@@H](CCCNC(=N)N)C(=O)N[C@@H](Cc1ccncc1)C(=O)N[C@@H](CC1CCCCC1)C(=O)NC(C)(C)C(=O)N[C@@H](CC(N)=O)C(=O)N[C@@H](CCCCN)C(=O)NC(C)(C)C(=O)N[C@H](C(=O)N[C@@H](CCCNC(=N)N)C(=O)N[C@@H](CCC(N)=O)C(=O)N[C@@H](CCCNC(=N)N)C(=O)N[C@@H](CC1CCCCC1)C(N)=O)[C@@H](C)O
B13: Ac-[Glu23, D-Pro24, Pya(4)26, Cha27,36, Aib28,31, Lys30]-PYY(23-36) (peptide)
peptide: Ac-E[dP]R[4Pal][Cha][Aib]NK[Aib]TRQR[Cha]-NH2
SMILES: CC(=O)N[C@@H](CCC(=O)O)C(=O)N1CCC[C@@H]1C(=O)N[C@@H](CCCNC(=N)N)C(=O)N[C@@H](Cc1ccncc1)C(=O)N[C@@H](CC1CCCCC1)C(=O)NC(C)(C)C(=O)N[C@@H](CC(N)=O)C(=O)N[C@@H](CCCCN)C(=O)NC(C)(C)C(=O)N[C@H](C(=O)N[C@@H](CCCNC(=N)N)C(=O)N[C@@H](CCC(N)=O)C(=O)N[C@@H](CCCNC(=N)N)C(=O)N[C@@H](CC1CCCCC1)C(N)=O)[C@@H](C)O
B14: Ac-[βAla24, Pya(4)26, Cha27,36, Aib28,31, Lys30]-PYY(23-36) (peptide)
peptide: Ac-S[βAla]R[4Pal][Cha][Aib]NK[Aib]TRQR[Cha]-NH2
SMILES: CC(=O)N[C@@H](CO)C(=O)NCCC(=O)N[C@@H](CCCNC(=N)N)C(=O)N[C@@H](Cc1ccncc1)C(=O)N[C@@H](CC1CCCCC1)C(=O)NC(C)(C)C(=O)N[C@@H](CC(N)=O)C(=O)N[C@@H](CCCCN)C(=O)NC(C)(C)C(=O)N[C@H](C(=O)N[C@@H](CCCNC(=N)N)C(=O)N[C@@H](CCC(N)=O)C(=O)N[C@@H](CCCNC(=N)N)C(=O)N[C@@H](CC1CCCCC1)C(N)=O)[C@@H](C)O

Assays:
[1] = molecular target: human Y2 receptor (human) (UniProt P49146); assay: RBA: displacement of [125I]-PYY from hY2R/CHO membranes
Chain of human Y2 receptor (human) (P49146 whole entry): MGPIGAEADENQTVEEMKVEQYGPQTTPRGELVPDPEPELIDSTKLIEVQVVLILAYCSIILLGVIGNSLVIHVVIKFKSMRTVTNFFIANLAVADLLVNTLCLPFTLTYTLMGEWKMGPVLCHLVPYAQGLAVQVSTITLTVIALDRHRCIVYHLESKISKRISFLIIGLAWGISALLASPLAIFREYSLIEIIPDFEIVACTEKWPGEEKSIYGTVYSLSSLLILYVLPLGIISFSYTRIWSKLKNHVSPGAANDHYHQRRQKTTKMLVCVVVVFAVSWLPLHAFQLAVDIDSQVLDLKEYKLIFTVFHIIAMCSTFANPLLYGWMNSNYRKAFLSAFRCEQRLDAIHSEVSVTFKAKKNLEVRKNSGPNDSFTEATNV

[2] = molecular target: human Y2 receptor (human) (UniProt P49146); assay: cell-based or functional assay

Binder	IC50 Ratio (IC50 compound/IC50 PYY(3-36)) [1]	GBA EC50 Ratio ([35S]GTPγS binding) (EC50 compound/EC50 PYY(3-36)) [2]
B1	0.8	1.3
B2	2.3	1.7
B3	1.9	1.8
B4	2.5	2.4
B5	3.4	2.2
B6	1.3	0.9
B7	2	1.9
B8	1.9	2
B9	1.1	0.69
B10	7.4	3.9
B11	1.3	1.3
B12	5.3	3.5
B13	2.7	1.9
B14	1.9	1.1
